From article PMC8136768

Target: CEBPβ bZIP DNA-binding domain (pXC1599) (Homo sapiens, UniProt P17676 269-344)
Test: X-ray crystallography

Chain of CEBPβ bZIP DNA-binding domain (pXC1599) (P17676 269-344): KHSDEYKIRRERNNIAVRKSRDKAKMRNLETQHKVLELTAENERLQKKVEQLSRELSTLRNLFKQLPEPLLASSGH

B1: Crystal 16-mer, T:G mismatch (dsDNA)
DNA 1: AGGATTGTGCAATATA
DNA 2: ATATTGCGCAATCCTT
- binding result: binds
